In US20120003296A1, “NEW METHODS OF TREATING DRY EYE SYNDROME” (priority 2010, published 2012):

How the values were obtained:
Wurzburg cells = conditions: cited from earlier work
[1] = tested on: dry mouth and dry eyes conditions; assay: ADT (Sialor) orally and/or as eye drops in dry mouth and dry eyes; format: in vivo; conditions: 25 mg orally and/or ophthalmic drops; chemotherapy patients, menopausal women, chronic smokers
Method: Another drug available is an organo sulfur compound, anethole dithiolethione (ADT, 5-[p-methoxyphenyl]-3H-1,2-dithiol-3-thione, trade name Sialor™) with hardly any side effects. It stimulates the secretion of saliva in patients with autoimmune exocrinopathy (e.g. Sjogren's syndrome). Sialor alleviates the symptoms of xerostomia and xeroophthalmia. We have used Sialor, 25 mg orally and/or ophthalmic drops with successes in these conditions especially those on chemotherapy, menopausal women, and chronic smokers with dry mouth and dry eyes conditions. ADT increases the glutathione synthesis by activating gamma-glutamyl-cysteine synthetase. ADT reduced both polymorphonuclear neutrophils adhesion to ROS (reactive oxygen species—can be effective in post perfusion adhesion of white blood cells to ROS with resultant damage) and stimulated tyrosine phosphorylation.
Another drug available to treat KCS is a organo sulfur compound, anethole dithiolethione (ADT—trade name Sialor) with hardly any side effects. It stimulates the secretion of saliva, in patients with autoimmune exocrinopathy (Sjogren's syndrome). Sialor alleviates the symptoms of xerostomia and xeroophthalmia. […]

[2] = relative to testosterone; cited from earlier work
dry eye [3] = conditions: ophthalmic drops, compared to artificial tears or testosterone; cited from earlier work
dry eye syndrome [4] = assay: MSM mixed with insulin as eye drops; format: in vivo; conditions: aqueous MSM mixed with insulin, chemotherapy, allergic eyes, contact lens wearers
Description: Methylsulfonylmethane (MSM), is an organosulfur compound with the formula (CH3)2SO2, a metabolite of DMSO. It is also known by several other names: DMSO2, MSM, Methylsulfonylmethane, methyl sulfone, and dimethyl sulfone. It is marketed as dietary supplement and also used for osteoarthritis, allergic rhinitis, interstitial cystitis, and throat spray for snoring. Stanley W. Jacob, M.D., of the Oregon Health and Science University, reports using MSM to treat over 18,000 patients with a assortment of ailments (MSM the Definitive Guide: The Nutritional Breakthrough for Arthritis, Allergies and More. Freedom Press. 2003. ISBN 9781893910225. http://www.amazon.com/MSM-Definitive-Guide-Nutritional-Breakthrough/dp/1893910229). It is soluble in water, and a good solvent like DMSO. We have used aqueous solutions of MSM, filtered and sterilized and mixed with insulin and used as eye drops to treat dry eye syndrome during chemotherapy, allergic conditions of the eyes and contact lens wearers with good results.

dry eye [5] = conditions: 2% suspension, versus baseline; cited from earlier work
[6] = tested on: scleroderma and systemic lupus erythematosus; conditions: with insulin
dry eye syndrome [7] = assay: Therapeutic activity against dry eye syndrome; format: in vivo; conditions: incl. KCS, Sjogren's syndrome, MGD
Description: Also, the terminology used herein is for the purpose of description and not of limitation.

[8] = in vivo; cited from earlier work
[9] = local application incl. conjunctival sac, scalp, gums, mucosa, wounds
Description: The present invention formulation contains only 0.05 IU per drop which can be increased in severe disease states.

[10] = Local insulin on ulcers and tooth extraction wounds; format: in vivo; conditions: insulin soaked cotton swabs, 1-3 units in normal saline
Description: (§1) The present inventors have used insulin for more than a decade to enhance the effectiveness of locally injected therapeutic agents especially cancers with chemotherapeutic agents with remarkable results. […] It stimulated the fibroblast, endothelial cell, angiogenesis and skin cell growth resulting accelerated wound healing.

indolent ulcers = assay: as above; format: in vivo; conditions: insulin spray, anywhere in the body incl. oral and nasal cavity
Description: as §1

musculoskeletal pain = assay: Prolotherapy injectate with insulin; format: in vivo; conditions: with insulin versus prolotherapy agent alone
Description: The inventors have used glucose along with insulin and lidocaine in our prolotherapy injectate for various musculoskeletal pain, including arthritis, back pain, neck pain, fibromyalgia, sports injuries, unresolved whiplash injuries, carpal tunnel syndrome, chronic tendonitis, partially torn tendons, ligaments and cartilage, degenerated or herniated discs, TMJ pain and sciatica. It is important to note the principle of prolotherapy is to induce fibroblasts to multiply and lay more ligaments (collagen); make the ligaments and tendons stronger inducing sterile inflammation at the site. Insulin can enhance the multiplication of fibroblasts by these prolotherapy and other sterile inflammatory therapeutic agents to make ligaments stronger. […] Insulin increased the fibroblast mitosis and thus increased production of collage to strengthen the ligaments of the painful joint giving long lasting fast pain relief with stronger functional joints. When insulin is therapeutically effective ever in taking away the pain by various prolotherapy therapeutic agents, one can see how effective it is in treating the dry eye syndrome and associated diseases of the eye.

[11] = tested on: MCF-7 human breast cancer cells; conditions: in vitro, MCF-7 cells, methotrexate in presence of insulin; cited from earlier work
pain = assay: Trigger point and joint injection of local anesthetic with insulin; format: in vivo; conditions: local anesthetic with insulin versus injectate without insulin
Description: Trigger points or trigger sites are described as hyperirritable spots in skeletal muscle that are associated with palpable nodules in taut bands of muscle fibers whose compression may elicit local tenderness, referred pain, or local twitch response. There are many therapies to take away the tenderness and sore spots.

[12] = tested on: advanced and localized cancers; assay: Insulin followed by chemotherapeutic agents injected into cancer masses; format: in vivo; conditions: insulin followed by anticancer chemotherapeutic agents, direct injection
Description: Our study of injecting Insulin followed by anticancer chemotherapeutic agents directly into cancer masses on hundreds of advanced and localized cancers supports these finding also. […] We treated multiple brain cancer patients by directly injecting insulin with mannitol followed by with specific anti tumor Chemo-therapeutic agents with dextrose and heparin directly infused into the internal carotid artery with positive results. Patients lived longer with good quality of life with less side effects to the chemotherapy agents.

COc1ccc(-c2cc(=S)ss2)cc1 [ADT, 5-[p-methoxyphenyl]-3H-1,2-dithiol-3-thione]
H2O2 induced lipid peroxidation (Wurzburg cells; ADT pretreatment of Wurzburg cells): remarkably inhibited | glutathione levels (Wurzburg cells; compared with untreated Wurzburg cells): rises glutathione levels significantly | treatment outcome in dry mouth and dry eyes conditions [1]: successes

C[C@]12CC[C@H](O)CC1=CC[C@@H]1[C@@H]2CC[C@]2(C)C(=O)CC[C@@H]12 [DHEA, dehydroepiandrosterone]
androgenic activity of testosterone [2]: 5% | subjective patient response (dry eye [3]): felt better

CS(C)(=O)=O [MSM, Methylsulfonylmethane]
treatment outcome in dry eye syndrome (dry eye syndrome [4]): good results

O=C(NC(Cc1cc(=O)[nH]c2ccccc12)C(=O)O)c1ccc(Cl)cc1 (stereo not drawn) [Rebamipide]
fluorescein corneal staining (dry eye [5]): decreased from baseline | subjective parameters such as gritty/sandy sensation and burning/pain (dry eye [5]): decreased from baseline

O=P1(N(CCCl)CCCl)NCCCO1 (stereo not drawn) [cyclophosphamide, Cyclophosphamide]
treatment outcome in scleroderma and systemic lupus erythematosus [6]: very successfully

IGF-1: Insulin-like Growth factor (IGF-1), which has insulin like effects
therapeutic activity against dry eye syndrome (dry eye syndrome [7]): high therapeutic activity

Insulin aspart
Onset of Action in hours [8]: ¼-½

Insulin detemir
Effective duration of action [8]: 14 h | Maximum duration [8]: ~20 h | Onset of Action [8]: 3 to 4 h | Peak action in hours [8]: 6 to 8 h

Insulin glargine
Effective duration of action [8]: 18 to 20 h | Maximum duration [8]: 20 to 24 h | Onset of Action [8]: 3 to 4 h | Peak action in hours [8]: 8 to 16 h

Insulin glulisine
Onset of Action in hours [8]: ¼-½

Insulin lispro
Onset of Action in hours [8]: ¼-½

NPH (isophane): intermediate-acting insulin
Effective duration of action [8]: 10 to 16 h | Maximum duration [8]: 14 to 18 h | Onset of Action [8]: 2 to 4 h | Peak action in hours [8]: 6 to 10 h

Regular (soluble): short-acting insulin
Effective duration of action [8]: 3 to 6 h | Maximum duration [8]: 6 to 8 h | Peak action in hours [8]: 2 to 3 h

insulin
blood sugar levels (hypoglycemic effects) [9]: did not change the blood sugar levels | healing after teeth extraction [10]: rapid healing with reduced pain | healing of indolent ulcers (indolent ulcers): augmented the healing | therapeutic activity against dry eye syndrome (dry eye syndrome [7]): high therapeutic activity | effectiveness of prolotherapy (musculoskeletal pain): more effective | increase of the cytotoxic effect of methotrexate [11]: up to 10,000 fold | relief of pain (pain): rapid and effective relief of pain | palpable tumors including enlarged lymph nodes [12]: literally melted away
